Data taken from the Human Domainome abundance scans (Beltran et al. 2025).
± gives the uncertainty stated by the source.

B1: Ankyrin-2, residues 3571 to 3650; numbered along this chain, Q01484 (parent)
chain: ERLAYIADHLGFSWTELARELDFTEEQIHQIRIENPNSLQDQSHALLKYWLERDGKHATDTNLVECLTKINRMDIVHLME

Variants of: B1
Test: abundance fitness (aPCA) (normalised: wild type 0, dead -1); higher = more abundant; growth selection in yeast, the domain comes from the species named
Details: Homo sapiens

Variant	abundance fitness
E25L	-0.062 ± 0.057
E25R	-0.096 ± 0.062
E25D	0.016 ± 0.15
E25C	-0.22 ± 0.14
E25P	0.021 ± 0.07
E25S	-0.038 ± 0.055
E25I	0.009 ± 0.22
E25K	0.15 ± 0.24
E25V	-0.064 ± 0.056
E25T	-0.065 ± 0.077
E25A	-0.006 ± 0.054
E25H	-0.072 ± 0.14
E25M	-0.113 ± 0.074
E25F	-0.199 ± 0.12
E25Y	-0.122 ± 0.12
E25N	0.108 ± 0.18
E25Q	-0.01 ± 0.11
E25G	-0.074 ± 0.056
Q27H	0.101 ± 0.14
Q27M	-0.006 ± 0.1
Q27N	0.08 ± 0.41
Q27K	0.051 ± 0.14
Q27T	0.1 ± 0.12
Q27I	-0.039 ± 0.13

Variant	abundance fitness
Q27S	0.006 ± 0.071
Q27G	-0.144 ± 0.06
Q27L	-0.039 ± 0.066
Q27P	-0.675 ± 0.097
Q27V	-0.042 ± 0.051
Q27Y	-0.236 ± 0.13
Q27R	-0.09 ± 0.071
Q27E	0.007 ± 0.071
Q27A	-0.116 ± 0.081
H29P	-0.961 ± 0.16
H29G	0.027 ± 0.065
H29D	-0.079 ± 0.18
H29Y	-0.294 ± 0.2
H29I	-0.082 ± 0.079
H29E	-0.041 ± 0.17
H29S	-0.041 ± 0.056
H29A	-0.013 ± 0.057
H29R	-0.111 ± 0.06
H29T	-0.005 ± 0.085
H29M	-0.133 ± 0.16
H29Q	-0.025 ± 0.097
H29K	-0.004 ± 0.18
H29W	-0.137 ± 0.11
H29L	-0.006 ± 0.077

Variant	abundance fitness
H29F	0.062 ± 0.25
H29V	0.035 ± 0.064
H29C	-0.07 ± 0.15
H29N	-0.108 ± 0.25
F23T	-0.211 ± 0.12
F23V	-0.174 ± 0.078
F23W	-0.442 ± 0.085
F23S	-0.575 ± 0.075
I33C	-0.002 ± 0.11
I33A	-0.034 ± 0.07
I33D	-0.105 ± 0.14
I33E	0.039 ± 0.082
I28E	-0.171 ± 0.067
I28R	-0.22 ± 0.056
I28P	-0.833 ± 0.12
I28F	-0.792 ± 0.18
I28S	-0.203 ± 0.073
I28H	-0.668 ± 0.14
I28Y	-0.225 ± 0.12
I28N	-0.301 ± 0.14
I28K	-0.633 ± 0.32
I28T	-0.1 ± 0.12
I28L	-0.05 ± 0.052
I28Q	-0.179 ± 0.093

Variant	abundance fitness
I28D	-0.895 ± 0.17
I28V	-0.056 ± 0.066
I28G	-0.634 ± 0.064
I28M	-0.064 ± 0.13
I28A	-0.215 ± 0.078
E26Q	-0.129 ± 0.17
E26H	0.039 ± 0.13
E26T	-0.027 ± 0.066
E26F	-0.282 ± 0.17
E26L	-0.057 ± 0.059
E26W	-0.105 ± 0.069
E26D	-0.053 ± 0.12
E26I	-0.045 ± 0.14
E26S	-0.091 ± 0.057
E26K	0.035 ± 0.1
E26M	-0.041 ± 0.098
E26N	-0.033 ± 0.11
E26A	-0.087 ± 0.068
E26P	-0.086 ± 0.064
E26G	-0.059 ± 0.046
E26R	-0.068 ± 0.044
E26Y	-0.118 ± 0.14
E26C	-0.209 ± 0.092
I31L	-0.06 ± 0.065

Variant	abundance fitness
I31P	-1.19 ± 0.17
I31V	-0.057 ± 0.07
I31S	-0.772 ± 0.087
I31W	-0.336 ± 0.085
I31T	-0.157 ± 0.074
I31F	0.023 ± 0.21
I31C	0.027 ± 0.18
I31A	-0.545 ± 0.084
I31Q	-0.743 ± 0.12
I31N	-0.242 ± 0.25
I31M	-0.177 ± 0.12
I31E	-0.791 ± 0.45
I31G	-0.936 ± 0.1
I31Y	-0.42 ± 0.18
I31D	-1 ± 0.29
I31H	-0.707 ± 0.5
I31R	-1.04 ± 0.12
Q30S	-0.081 ± 0.063
Q30G	-0.079 ± 0.065
Q30H	-0.045 ± 0.13
Q30C	-0.044 ± 0.1
Q30L	-0.052 ± 0.058
Q30K	-0.112 ± 0.15
Q30V	-0.073 ± 0.082

Variant	abundance fitness
Q30E	0.005 ± 0.12
Q30M	0.008 ± 0.27
Q30N	-0.128 ± 0.18
Q30P	-0.825 ± 0.071
Q30W	-0.209 ± 0.078
Q30T	-0.023 ± 0.079
Q30R	0 ± 0.048
Q30A	-0.082 ± 0.058
Q30D	-0.183 ± 0.15
Q30F	-0.023 ± 0.1
Q30I	-0.076 ± 0.11
R32L	-0.034 ± 0.068
R32P	-0.293 ± 0.047
R32T	-0.127 ± 0.082
R32C	-0.074 ± 0.16
R32A	-0.096 ± 0.069
R32Y	-0.384 ± 0.2
R32Q	0.081 ± 0.079
R32G	-0.05 ± 0.067
R32S	-0.059 ± 0.061
R32I	-0.339 ± 0.22
R32D	-0.073 ± 0.18
R32K	0.177 ± 0.22
R32E	0.058 ± 0.17

Variant	abundance fitness
R32F	-0.088 ± 0.17
R32W	-0.25 ± 0.22
R32N	-0.206 ± 0.15
R32H	0.034 ± 0.097
R32M	-0.065 ± 0.13
T24E	-0.02 ± 0.16
T24A	-0.053 ± 0.061
T24F	-0.053 ± 0.1
T24W	-0.409 ± 0.1
T24V	-0.248 ± 0.079
T24K	0.162 ± 0.17
T24D	0.064 ± 0.17
T24L	-0.144 ± 0.057
T24Q	0.025 ± 0.17
T24G	-0.014 ± 0.057
T24C	-0.193 ± 0.18
T24P	-0.138 ± 0.059
T24N	-0.005 ± 0.088
T24S	-0.025 ± 0.054
T24I	-0.154 ± 0.099
T24Y	0.053 ± 0.13
T24H	-0.075 ± 0.28
T24R	-0.027 ± 0.069
